What was measured:
HpSoj K199/230E = molecular target: T1, HpSoj K199/230E (Helicobacter pylori 26695, UniProt O25759 1-264, K199E;K230E); assay: fluorescence polarization
T1 sequence: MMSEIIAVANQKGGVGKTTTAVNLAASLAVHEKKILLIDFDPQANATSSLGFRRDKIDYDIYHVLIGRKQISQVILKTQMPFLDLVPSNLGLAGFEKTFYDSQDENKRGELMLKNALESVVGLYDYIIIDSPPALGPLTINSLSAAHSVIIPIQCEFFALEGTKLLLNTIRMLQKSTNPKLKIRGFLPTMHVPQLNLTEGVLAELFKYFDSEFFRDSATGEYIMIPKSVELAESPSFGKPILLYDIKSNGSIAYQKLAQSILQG

HpSoj [1] = molecular target: T2, HpSoj (Helicobacter pylori 26695, UniProt O25759 1-264); assay: fluorescence polarization
T2 sequence: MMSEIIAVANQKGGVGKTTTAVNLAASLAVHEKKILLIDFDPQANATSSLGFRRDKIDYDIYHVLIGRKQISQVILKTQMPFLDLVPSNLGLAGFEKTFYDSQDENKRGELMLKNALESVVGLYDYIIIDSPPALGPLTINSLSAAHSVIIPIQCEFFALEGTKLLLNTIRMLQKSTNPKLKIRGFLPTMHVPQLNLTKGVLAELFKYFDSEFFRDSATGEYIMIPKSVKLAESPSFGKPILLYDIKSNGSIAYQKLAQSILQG

HpSoj K230E = molecular target: T3, HpSoj K230E (Helicobacter pylori 26695, UniProt O25759 1-264, K230E); assay: fluorescence polarization
T3 sequence: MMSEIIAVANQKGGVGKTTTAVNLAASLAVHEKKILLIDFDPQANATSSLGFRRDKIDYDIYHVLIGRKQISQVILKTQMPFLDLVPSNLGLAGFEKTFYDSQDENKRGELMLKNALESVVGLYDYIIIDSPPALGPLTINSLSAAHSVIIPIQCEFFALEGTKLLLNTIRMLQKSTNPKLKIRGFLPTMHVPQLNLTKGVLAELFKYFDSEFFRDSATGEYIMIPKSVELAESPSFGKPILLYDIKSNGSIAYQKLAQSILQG

HpSoj K199E = molecular target: T4, HpSoj K199E (Helicobacter pylori 26695, UniProt O25759 1-264, K199E); assay: fluorescence polarization
T4 sequence: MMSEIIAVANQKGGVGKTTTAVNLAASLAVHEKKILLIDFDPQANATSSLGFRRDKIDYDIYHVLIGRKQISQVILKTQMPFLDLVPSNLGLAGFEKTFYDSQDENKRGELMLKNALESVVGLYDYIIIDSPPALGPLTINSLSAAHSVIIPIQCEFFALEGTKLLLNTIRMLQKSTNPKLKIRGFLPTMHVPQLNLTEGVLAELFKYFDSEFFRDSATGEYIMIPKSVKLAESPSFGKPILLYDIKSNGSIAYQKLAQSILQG

HpSoj K199/227/230/247E = molecular target: T5, HpSoj K199/227/230/247E (Helicobacter pylori 26695, UniProt O25759 1-264, K199E;K227E;K230E;K247E); assay: fluorescence polarization
T5 sequence: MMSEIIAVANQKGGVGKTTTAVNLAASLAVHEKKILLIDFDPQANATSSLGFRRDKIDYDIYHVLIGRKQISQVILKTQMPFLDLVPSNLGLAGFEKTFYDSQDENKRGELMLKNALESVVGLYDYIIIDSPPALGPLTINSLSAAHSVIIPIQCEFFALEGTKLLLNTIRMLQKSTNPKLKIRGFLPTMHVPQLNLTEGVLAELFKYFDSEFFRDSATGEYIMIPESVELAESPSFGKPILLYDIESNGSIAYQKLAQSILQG

HpSoj [2] = molecular target: T2, HpSoj; assay: EMSA

B1: parS24 Cy3 (dsDNA)
DNA 1: AGGGTGTTCCACGTGAAACAGGGA
DNA 2: TCCCTGTTTCACGTGGAACACCCT
Binder B1 has a Kd (HpSoj K199/230E) of 308 ± 40 nM, a Kd (HpSoj [1]) of 122 ± 14 nM and a Kd (HpSoj K230E) of 187 ± 36 nM. The Kd (HpSoj K199E) was 215 ± 24 nM and the binding result (HpSoj K199/227/230/247E) was “no binding”.

B2: parS55 (dsDNA)
DNA 1: CTGAATCAGCAGTTGAATCAGAATGTTCCACGTGAAACAAAGAAAAAAGAACCTG
DNA 2: CAGGTTCTTTTTTCTTTGTTTCACGTGGAACATTCTGATTCAACTGCTGATTCAG
B2: binds (HpSoj [2]).

Reference: article PMC6393308
